Assay [1] has as its target DN-IV quality control recombinant protein (produced by the company) (dengue virus). Put plainly: BLI, antibody on AMC sensor. For orientation: Biolayer interferometry detects binding as a change in optical thickness at a sensor tip.
In assay [2] the target is Antigen DN-IV-Ag# (Fapon Biotech Inc.) (dengue virus). Kind of assay: indirect ELISA on coated DN-IV-Ag#, antibody initial. On the technique in general: In an ELISA, binding on a coated surface is turned into a signal by an enzyme label.
Assay [3] has the same target. Put plainly: indirect ELISA on coated DN-IV-Ag#, antibody diluted 3 times.
Assay [4] shares this target. Put plainly: indirect ELISA on coated DN-IV-Ag#, antibody diluted 9 times.
For assay [5] the target is unchanged. Put plainly: indirect ELISA on coated DN-IV-Ag#, antibody diluted 27 times.
The target is the same in assay [6]. Kind of assay: indirect ELISA on coated DN-IV-Ag#, antibody diluted 81 times.
The target is the same in assay [7]. Put plainly: indirect ELISA on coated DN-IV-Ag#, antibody diluted 243 times.
Assay [8] has the same target. Kind of assay: indirect ELISA on coated DN-IV-Ag#, antibody diluted 729 times.

Where a chain is given by its changes, count along the chain named.

As usually defined, the Kd is the free concentration of one partner at which half of the binding sites on the other are occupied at equilibrium, for simple one-to-one binding. By koff is commonly meant a measure of how fast the partners let go of each other. In general, kon refers to the rate constant with which the complex forms.

B1: WT (recombinant anti-dengue virus NS1 7F8 antibody of Example 2) (antibody, mouse IgG1, kappa, V domains shown)
VH: EVQLQQPGPELVKPGASVKMSCKASGYTVTSYVIHWVRQKPGQGLEWIGYMNAYNDGIKYNEKFIGKAILTSDKSSSTAYMQLSSLTSEDSAVYYCTKEGLFYVMDYWGQGTSVTVSS
VL: QIVLTQSPAIMSASPGEKVTMTCSATSSISYMHWYQQKSGTSPKRWIYDTSKLASPVPVRFSGSGSGTSYSLTISSMEAEDAATYFCQYWRSDLPTFGAGTKLELKR
In the case of B1, in assay [1], the Kd stood at 3.15 nM. Further, the koff in assay [1] came to 0.000139 s⁻¹. In addition, the kon in assay [1] was 44200 M⁻¹ s⁻¹. The OD450 (reference 630 nm) is 1.42 OD in assay [2]; 1.18 OD in assay [3]; 0.781 OD in assay [4]; 0.398 OD in assay [5]; 0.24 OD in assay [6]; 0.2 OD in assay [7]. The molecule also came in with an OD450 (reference 630 nm) in assay [8] of 0.211 OD.

B2: Mutation 1 (antibody, V domains shown)
VH: B1 VH with V29F, Y32T, A53P, I58L
VL: B1 VL with P56G, Y89Q
Take B2: the Kd in assay [1] was determined as 2.85 nM. Also, the off-rate (koff) in assay [1] stood at 0.000126 s⁻¹. In assay [1], the kon came to 44200 M⁻¹ s⁻¹. Also, the OD450 (reference 630 nm) was found to be 1.61 OD in assay [2]; 1.39 OD in assay [3]; 1.07 OD in assay [4]; 0.445 OD in assay [5]; 0.203 OD in assay [6]; 0.103 OD in assay [7]. In assay [8], this molecule came in with an OD450 (reference 630 nm) of 0.111 OD.

B3: Mutation 3 (antibody, V domains shown)
VH: B1 VH with V29L, Y32T, A53K, I58L, E62P
VL: B1 VL with A25V, P56C, Y89Q, D93Q
Take B3: the OD450 (reference 630 nm) in assay [2] was 0.923 OD; in assay [3], 0.347 OD; in assay [4], 0.062 OD.

B4: Mutation 2 (antibody, V domains shown)
VH: B1 VH with V29F, Y32T, A53G, I58L, E62N
VL: B1 VL with P56A, Y89Q
In the case of B4, the OD450 (reference 630 nm) in assay [2] worked out at 1.59 OD; in assay [3], 1.48 OD; in assay [4], 1.05 OD; in assay [5], 0.578 OD; in assay [6] it was 0.216 OD; in assay [7], 0.11 OD. This molecule also came in with an OD450 (reference 630 nm) in assay [8] of 0.157 OD.

For the origin of these results see patent US20210324054A1.
